The values below come from IntAct's records for PubMed 18256688.

B1: Regulator of nonsense transcripts 1 (Homo sapiens), Q92900 (parent)
chain: MSVEAYGPSSQTLTFLDTEEAELLGADTQGSEFEFTDFTLPSQTQTPPGGPGGPGGGGAGGPGGAGAGAAAGQLDAQVGPEGILQNGAVDDSVAKTSQLLAELNFEEDEEDTYYTKDLPIHACSYCGIHDPACVVYCNTSKKWFCNGRGNTSGSHIVNHLVRAKCKEVTLHKDGPLGETVLECYNCGCRNVFLLGFIPAKADSVVVLLCRQPCASQSSLKDINWDSSQWQPLIQDRCFLSWLVKIPSEQEQLRARQITAQQINKLEELWKENPSATLEDLEKPGVDEEPQHVLLRYEDAYQYQNIFGPLVKLEADYDKKLKESQTQDNITVRWDLGLNKKRIAYFTLPKTDSGNEDLVIIWLRDMRLMQGDEICLRYKGDLAPLWKGIGHVIKVPDNYGDEIAIELRSSVGAPVEVTHNFQVDFVWKSTSFDRMQSALKTFAVDETSVSGYIYHKLLGHEVEDVIIKCQLPKRFTAQGLPDLNHSQVYAVKTVLQRPLSLIQGPPGTGKTVTSATIVYHLARQGNGPVLVCAPSNIAVDQLTEKIHQTGLKVVRLCAKSREAIDSPVSFLALHNQIRNMDSMPELQKLQQLKDETGELSSADEKRYRALKRTAERELLMNADVICCTCVGAGDPRLAKMQFRSILIDESTQATEPECMVPVVLGAKQLILVGDHCQLGPVVMCKKAAKAGLSQSLFERLVVLGIRPIRLQVQYRMHPALSAFPSNIFYEGSLQNGVTAADRVKKGFDFQWPQPDKPMFFYVTQGQEEIASSGTSYLNRTEAANVEKITTKLLKAGAKPDQIGIITPYEGQRSYLVQYMQFSGSLHTKLYQEVEIASVDAFQGREKDFIILSCVRANEHQGIGFLNDPRRLNVALTRARYGVIIVGNPKALSKQPLWNHLLNYYKEQKVLVEGPLNNLRESLMQFSKPRKLVNTINPGARFMTTAMYDAREAIIPGSVYDRSSQGRPSSMYFQTHDQIGMISAGPSHVAAMNIPIPFNLVMPPMPPPGYFGQANGPAAGRGTPKGKTGRGGRQKNRFGLPGPSQTNLPNSQASQDVASQPFSQGALTQGYISMSQPSQMSQPGLSQPELSQDSYLGDEFKSQIDVALSQDSTYQGERAYQHGGVTGLSQY

Variants of B1 are the subject of one experiment. As to conditions: with rent2_human UPF2, Q9HAU5.
Sequence of rent2_human UPF2, Q9HAU5 (Q9HAU5 whole entry): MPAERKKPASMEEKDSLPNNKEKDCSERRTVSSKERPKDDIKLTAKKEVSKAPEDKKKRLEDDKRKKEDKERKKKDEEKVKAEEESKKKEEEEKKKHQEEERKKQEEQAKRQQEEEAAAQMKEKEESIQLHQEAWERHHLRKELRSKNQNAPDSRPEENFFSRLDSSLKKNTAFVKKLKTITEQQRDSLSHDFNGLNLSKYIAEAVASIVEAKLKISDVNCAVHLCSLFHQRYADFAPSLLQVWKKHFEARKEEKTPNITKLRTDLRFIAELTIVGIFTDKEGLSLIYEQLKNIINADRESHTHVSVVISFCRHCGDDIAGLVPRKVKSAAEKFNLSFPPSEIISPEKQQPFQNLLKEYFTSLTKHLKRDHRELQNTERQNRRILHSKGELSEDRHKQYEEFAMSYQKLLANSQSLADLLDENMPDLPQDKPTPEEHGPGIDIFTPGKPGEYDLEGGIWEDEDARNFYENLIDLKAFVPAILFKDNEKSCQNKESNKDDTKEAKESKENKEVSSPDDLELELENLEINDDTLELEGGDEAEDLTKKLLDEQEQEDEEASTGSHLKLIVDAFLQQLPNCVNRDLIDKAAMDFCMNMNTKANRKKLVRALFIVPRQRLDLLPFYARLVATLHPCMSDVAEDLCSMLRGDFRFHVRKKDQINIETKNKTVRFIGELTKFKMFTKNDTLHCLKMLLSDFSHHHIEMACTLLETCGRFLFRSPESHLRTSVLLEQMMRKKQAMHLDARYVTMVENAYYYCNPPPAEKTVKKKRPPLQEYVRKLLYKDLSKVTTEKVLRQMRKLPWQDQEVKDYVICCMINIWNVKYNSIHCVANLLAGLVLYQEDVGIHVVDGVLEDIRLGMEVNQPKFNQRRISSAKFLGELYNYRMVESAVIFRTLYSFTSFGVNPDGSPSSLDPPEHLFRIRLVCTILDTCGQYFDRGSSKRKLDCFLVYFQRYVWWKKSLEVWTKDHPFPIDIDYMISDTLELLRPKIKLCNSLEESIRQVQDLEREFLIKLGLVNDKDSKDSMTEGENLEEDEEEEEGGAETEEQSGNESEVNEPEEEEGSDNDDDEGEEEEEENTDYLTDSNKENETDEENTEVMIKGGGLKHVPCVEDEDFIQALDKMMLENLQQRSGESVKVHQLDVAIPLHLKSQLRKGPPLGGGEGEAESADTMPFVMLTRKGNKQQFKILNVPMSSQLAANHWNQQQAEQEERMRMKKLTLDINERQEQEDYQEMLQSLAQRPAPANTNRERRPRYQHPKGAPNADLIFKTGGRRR
As for V205I, the “effect of a mutation on the interaction” value is given as “disrupting interaction”.

Regarding V204D, the “effect of a mutation on the interaction” value was “disrupting interaction”.

In a further experiment the parent is B1. As to conditions: with rent2_human UPF2, Q9HAU5. This is another data set of the same source.
Take Y184D: the “effect of a mutation on the interaction” value was “disrupting interaction”.

As for C183V, the “effect of a mutation on the interaction” value is recorded as “disrupting interaction”.

Consider E182R, for which the “effect of a mutation on the interaction” value was “disrupting interaction”.

L181V: the “effect of a mutation on the interaction” value is “disrupting interaction”.

In the next experiment the parent is B1. The following applies: with rent2_human UPF2, Q9HAU5. This is another data set of the same source.
On to C126S, for which the “effect of a mutation on the interaction” value is reported as “disrupting interaction”.
